Test: protein stability index of a GFP-peptide fusion (GPS, HEK-293T) (PSI 1-6); higher = more stable
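Also: lentivirally expressed fusions sorted by FACS into six bins by GFP to DsRed ratio, PSI derived from sequencing read proportions per bin multiplied by bin number.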

## EPLPVERDPAAGAAPFRFVARPVR
parent: IOH11805_4, c terminus: a fixed tail appended
  protein stability index: 2.21

## SGPEAARAGGWVSGEEFYMLTRRV
parent: IOH11095_116, c terminus: a fixed tail appended
  protein stability index: 2.25

## VFIFYYVVEEILELHIHRLRYLSS
parent: IOH11095_61, c terminus: a fixed tail appended
  protein stability index: 2.92

## RGVRRTASTPTPDDKLFQKLAKVY [CPN1 WT]
parent: IOH11355_40, c terminus: a fixed tail appended
  protein stability index: 1.95

## YLDPSVLSGVSCFVMFLCLADYLV [ARL6IP1 WT]
parent: IOH11244_11, c terminus: a fixed tail appended
  protein stability index: 2.87

## FVESSGGGSSAVGQFVSLDGAGKT
parent: IOH11305_8, c terminus: a fixed tail appended
  protein stability index: 2.44

## SEVEELNMSLTALREKLLEAEQSL
parent: IOH11065_62, c terminus: a fixed tail appended
  protein stability index: 2.99

## FLPGGDMMTLLMKKDTLTEEETQF
parent: IOH11742_29, c terminus: a fixed tail appended
  protein stability index: 2.21

## HYPFLGAMGDHSKKKPGTAMCVGC [ISL2 WT]
parent: IOH10979_2, c terminus: a fixed tail appended
  protein stability index: 2.74

## LYKEELEQTYHAKLENARLSSEMN [LMNB1 WT]
parent: IOH11078_44, c terminus: a fixed tail appended
  protein stability index: 2.79

## TKHKCRQLTKASLKPRGCSKPPWR
parent: IOH11209_33, c terminus: a fixed tail appended
  protein stability index: 2.75

## FAPQTGARPSETFARFCKSQESAL [C19orf51 WT]
parent: IOH10770_74, c terminus: a fixed tail appended
  protein stability index: 2.22

## FHEVGTEMIITKAGRRMFPSYKVK
parent: IOH11603_12, c terminus: a fixed tail appended
  protein stability index: 2.15

## LTEAEGWHFFCFQGEATRKLAGK
parent: IOH12374_27, c terminus: native
  protein stability index: 2.13

## ILREELQKQRLREILEQQQQERND [ZNF277 WT]
parent: IOH12086_23, c terminus: a fixed tail appended
  protein stability index: 4.26

## KYMPHLCQDSSGEVSCQCQLHPPR [MGC27345 WT]
parent: IOH12124_9, c terminus: a fixed tail appended
  protein stability index: 2

## LLEDMRASEAFHWDERGRAAAYSP
parent: IOH11833_9, c terminus: a fixed tail appended
  protein stability index: 1.79

## FSHDGLHVASLADDKMVRFWRIDE
parent: IOH12660_54, c terminus: a fixed tail appended
  protein stability index: 1.85

## GYGIYYFIYSTWKGRTIYLEDIYV
parent: IOH12374_13, c terminus: a fixed tail appended
  protein stability index: 3

## FDALDDYEHHYHTLHGNVCSFCKR
parent: IOH11805_16, c terminus: a fixed tail appended
  protein stability index: 3.55

## YEHHYHTLHGNVCSFCKRAFPSGH
parent: IOH11805_17, c terminus: a fixed tail appended
  protein stability index: 2.07

## IIKKVAEVALDKGCSQFRLAVLDW
parent: IOH12374_19, c terminus: a fixed tail appended
  protein stability index: 2.44

## IHSIALSTFASLIGPFGGFFASGF
parent: IOH10978_57, c terminus: a fixed tail appended
  protein stability index: 3.13

## CTACGSVLEDNIIVSEVQFVESSG
parent: IOH11305_5, c terminus: a fixed tail appended
  protein stability index: 3.03

## LIVVTQSHLVIHNLFEGMIWFIVP
parent: IOH10978_35, c terminus: a fixed tail appended
  protein stability index: 2.99

## IKRTIRVLDVNNQSFREQEEPSNK
parent: IOH11256_3, c terminus: a fixed tail appended
  protein stability index: 3.53

## YSPRRSRGSPRYSPRHSRSRSRT
parent: IOH11039_42, c terminus: native
  protein stability index: 3.93

## RDIDLKNRRGGPPFAFVEFEDPRD
parent: IOH11039_8, c terminus: a fixed tail appended
  protein stability index: 3.81

## TLARCAKDILGFAVMFFIVFFAYA
parent: IOH11095_79, c terminus: a fixed tail appended
  protein stability index: 2.95

## SSKSRAAPSPQEALVRLRETEEML
parent: IOH12461_3, c terminus: a fixed tail appended
  protein stability index: 1.94

## YQNHKITQLKIENNPFAKGFRGSD
parent: IOH11603_37, c terminus: a fixed tail appended
  protein stability index: 2.57

## LTKASLKPRGCSKPPWRPPGGKL
parent: IOH11209_36, c terminus: native
  protein stability index: 2.04

## RVRPLARVTSLANLISPVRNGAVR
parent: IOH11256_7, c terminus: a fixed tail appended
  protein stability index: 3.05

## FCIDSENRIGNSGVEEIKGHPFFE
parent: IOH11742_61, c terminus: a fixed tail appended
  protein stability index: 2.18

## DLKDDGNMMKVLRGHQNWVYSCAF
parent: IOH12660_34, c terminus: a fixed tail appended
  protein stability index: 2

## RQLAYSTVGTPDYIAPEVFMQTGY
parent: IOH11742_47, c terminus: a fixed tail appended
  protein stability index: 2.48

## FPESETKECPFRVNKVCGAACSSK [SERPINB5 WT]
parent: IOH12329_30, c terminus: a fixed tail appended
  protein stability index: 2.39

## VGAAGSARQELLGDRPRWQRLLGE
parent: IOH11833_41, c terminus: a fixed tail appended
  protein stability index: 3.32

## FSDSSMDHFQKFLPTVGGQLGTAG [MYOZ1 WT]
parent: IOH11059_14, c terminus: a fixed tail appended
  protein stability index: 2.43

## FAPLLDEQYDLATKRVRQLLDLDP [GOLPH3 WT]
parent: IOH12568_43, c terminus: a fixed tail appended
  protein stability index: 2.12

## YPEDSSWAAKAPGASSREEPPEEP [SPDEF WT]
parent: IOH12673_12, c terminus: a fixed tail appended
  protein stability index: 4.25

## NWKETLVFPPEVPISEKAKDLILR
parent: IOH11742_57, c terminus: a fixed tail appended
  protein stability index: 3.08

## QLDWDELETNQQHFHALCHSLLVS [C2orf65 WT]
parent: IOH10869_57, c terminus: a fixed tail appended
  protein stability index: 2.16

## TNIRLPNVPSSSLPAQPNRKPGMS
parent: IOH12461_31, c terminus: a fixed tail appended
  protein stability index: 4.51

## HLYPADFRFDKPKKSRSPASAEAP
parent: IOH11805_29, c terminus: a fixed tail appended
  protein stability index: 2.92

## AAPFRFVARPVRFPREHQFFEDGD
parent: IOH11805_6, c terminus: a fixed tail appended
  protein stability index: 2.1

## PTPAKRRSSALWSEMLDITMKESL
parent: IOH11256_16, c terminus: a fixed tail appended
  protein stability index: 2.21

## YSGAYGASVSDEELKRRVAEELAL [CHCHD3 WT]
parent: IOH11162_9, c terminus: a fixed tail appended
  protein stability index: 2.57

## YARYHQAFADRDQSERQRHESQQL
parent: IOH11065_9, c terminus: a fixed tail appended
  protein stability index: 2.09

## AEVSWEPGRREGCDICAGKAGCPI [RPS21 WT]
parent: IOH11779_7, c terminus: a fixed tail appended
  protein stability index: 3.06

## IAQYALLGYFIRSWRTLAILVNLQ [SLC22A15 WT]
parent: IOH10897_34, c terminus: a fixed tail appended
  protein stability index: 2.63

## YSGGGYYLDLPGSRQGSAEALRAL
parent: IOH11095_45, c terminus: a fixed tail appended
  protein stability index: 1.95

## LREKLLEAEQSLRNLEDIHMSLEK
parent: IOH11065_64, c terminus: a fixed tail appended
  protein stability index: 2.56

From the supplement of paper PMC10567573
